In article PMC13184332:

Columns and labels:
His-GFP-KERP2 = molecular target: T1, His-GFP-KERP2 (Entamoeba histolytica, UniProt C4LZX9 1-239); assay: EMSA
T1 sequence: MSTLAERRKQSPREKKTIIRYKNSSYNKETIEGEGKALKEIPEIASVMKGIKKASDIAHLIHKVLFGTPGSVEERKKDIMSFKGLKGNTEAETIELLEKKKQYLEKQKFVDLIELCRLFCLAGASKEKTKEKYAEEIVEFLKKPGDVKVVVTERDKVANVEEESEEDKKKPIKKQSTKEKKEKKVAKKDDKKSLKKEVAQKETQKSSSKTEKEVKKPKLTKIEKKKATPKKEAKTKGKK

His-GFP-KERP2Δ185-239 = molecular target: T2, His-GFP-KERP2Δ185-239 (Entamoeba histolytica, UniProt C4LZX9 1-184, del185-239); assay: EMSA
T2 sequence: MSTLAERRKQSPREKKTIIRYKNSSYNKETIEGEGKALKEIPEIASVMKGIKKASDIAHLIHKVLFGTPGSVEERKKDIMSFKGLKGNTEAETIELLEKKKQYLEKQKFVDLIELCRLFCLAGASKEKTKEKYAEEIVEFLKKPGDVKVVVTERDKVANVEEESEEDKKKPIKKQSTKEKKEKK

B1: dsGC (dsDNA)
DNA 1: CGGGGCGCCGCGGGGCCCCCGGCCCGCCCCGCGGGGCGCCGGGCCCCGCC
DNA 2: GGCGGGGCCCGGCGCCCCGCGGGGCGGGCCGGGGGCCCCGCGGCGCCCCG
binding result (His-GFP-KERP2): no binding
binding result (His-GFP-KERP2Δ185-239): no binding

B2: dsAT (dsDNA)
DNA 1: TTAATTAAATAAATTAAAAAATTTTTTAATTAAATTAATTAATAAATTAAAATAAATTTTTTAATTAAATTTTAA
DNA 2: TTAAAATTTAATTAAAAAATTTATTTTAATTTATTAATTAATTTAATTAAAAAATTTTTTAATTTATTTAATTAA
binding result (His-GFP-KERP2): binds
binding result (His-GFP-KERP2Δ185-239): binds

B3: ssAT (ssDNA)
DNA: TTAATTAAATAAATTAAAAAATTTTTTAATTAAATTAATTAATAAATTAAAATAAATTTTTTAATTAAATTTTAA
binding result (His-GFP-KERP2): binds
binding result (His-GFP-KERP2Δ185-239): binds
